Test results published in publication PMC11865472 (2025).
Positions count from the first letter of the chain named. Numbers in names are those of the source.

T1: inhibin A (InhA), mature heterodimer, unlabelled (UniProt P05111 233-366; P08476 311-426)
T1 chain 1: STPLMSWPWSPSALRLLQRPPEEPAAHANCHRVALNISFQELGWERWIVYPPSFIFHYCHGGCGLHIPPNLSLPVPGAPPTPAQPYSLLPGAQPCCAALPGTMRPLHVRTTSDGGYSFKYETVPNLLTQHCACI
T1 chain 2: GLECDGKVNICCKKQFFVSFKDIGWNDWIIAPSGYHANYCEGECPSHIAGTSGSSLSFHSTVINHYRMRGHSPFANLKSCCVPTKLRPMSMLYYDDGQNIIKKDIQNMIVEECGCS

T2: biotinylated TGF-β2 homodimer (human, biotin (EZ-Link Amine-PEG3-Biotin coupled with EDC and sulfo-NHS))
T2 chain: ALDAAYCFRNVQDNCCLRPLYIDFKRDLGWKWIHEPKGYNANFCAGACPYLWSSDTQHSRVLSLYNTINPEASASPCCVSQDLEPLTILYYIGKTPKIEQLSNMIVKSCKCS

B1: rat betaglycan ZP-C domain (BG_(ZP-C)), mammalian-expressed (domain or fragment)
chain: GNATFNMELYNTDLFLVPSPGVFSVAENEHVYVEVSVTKADQDLGFAIQTCFLSPYSNPDRMSDYTIIENICPKDDSVKFYSSKRVHFPIPHAEVDKKRFSFLFKSVFNTSLLFLHCELTLCSRKKGSLKLPRCVTPDDACTSLDATMIWTMMQNKKTFTKPLAVVLQ
B2: BGZP-C S155A (protein)
chain: B1 chain with S143A
B3: BGZP-C E130A (protein)
chain: B1 chain with E118A
B4: TGF-β2 on the chip with ratBGO-Y248A bound (1 µM ratBGO-Y248A in the buffer) (complex)
chain 1: T2 chain
chain 2: GSPCELSPINASHPVQALMESFTVLSGCASRGTTGLPREVHVLNLRSTDQGPGQRQREVTLHLNPIASVHTHHKPIVFLLNSPQPLVWHLKTERLAAGVPRLFLVSEGSVVQFPSGNFSLTAETEERNFPQENEHLLRWAQKEYGAVTSFTELKIARNIYIKVGEDQVFPPTCNIGKNFLSLNYLAEYLQPKAAEGCVLPSQPHEKEVHIIELITPSSNPASAFQVDIIVDIRPAQEDPEVVKNLVLILKCKKSVNWVIKSFDVKGNLKVIAPNSIGFGKESERSMTMTKLVRDDIPSTQENLMKWALDNGYRPVTSYTMAPVANRFHLRLENHHHHHH
B5: TGF-β2 homodimer (growth factor domain), unlabelled (ligand)
chain: T2 chain
B6: TGF-β2 on the chip with zfBGO bound (1 µM zfBGO in the buffer) (complex)
chain 1: T2 chain
chain 2: GSPCELLPVGVGHPVQAMLKSFTALSGCASRGTTSHPQEVHIINLRKGSAQGAREKTAEVALHLRPIQSLHVHQKPLVFILNSPQPILWKVRTEKLAPGVKRIFHVVEGSEVHFEVGNFSKSGEVKVETLPHGNEHLLNWAHHRYTAVTSFSELRMAHDIYIKVGEDPVFSETCKIDNKFLSLNYLASYIEPQPSTGCVLSGPDHEQEVHIIELQAPNSSSAFQVDVIVDLRPLDGDIPLHRDVVLLLKGEKSVNWVIKAHKVMGKLEIMTSDTVSLSEDTERLMQVSKTVKQKLPAGSQALIQWAEENGFNPVTSYTNTPVANHFNLRLREHHHHHH
B7: TGF-β2 on the chip with ratBGO-zfBL bound (1 µM ratBGO-zfBL in the buffer) (complex)
chain 1: T2 chain
chain 2: GSPCELSPINASHPVQALMESFTVLSGCASRGTTGLPREVHVLNLRSTDQGPGQRQREVTLHLNPIASVHTHHKPIVFLLNSPQPLVWHLKTERLAAGVPRLFLVSEGSVVQFPSGNFSLTAETEERNFPQENEHLLRWAQKEYGAVTSFTELKIARNIYIKVGEDQVFPPTCNIGKNFLSLNYLAEYLQPKAAEGCVLPSQPHEKEVHIIELITPNSSSAFQVDIIVDIRPAQEDPEVVKNLVLILKCKKSVNWVIKSFDVKGNLKVIAPNSIGFGKESERSMTMTKLVRDDIPSTQENLMKWALDNGYRPVTSYTMAPVANRFHLRLENHHHHHH
B8: TGF-β2 on the chip with ratBGO bound (1 µM ratBGO in the buffer) (complex)
chain 1: T2 chain
chain 2: B4 chain 2 with A221Y

Legend:
[1] = target: T1, inhibin A (InhA), mature heterodimer, …; assay: SPR
[2] = target: B5; assay: SPR
[3] = target: T2, biotinylated TGF-β2 homodimer; assay: SPR
[4] = target: T3, TGF-β receptor type II (TGFBR2), extracellular domain (UniProt P37173 23-166); assay: SPR; 1 µM ratBGO-Y248A
[5] = target: T3, TGF-β receptor type II (TGFBR2), …; assay: SPR
[6] = target: T3, TGF-β receptor type II (TGFBR2), …; assay: SPR; 1 µM zfBGO
[7] = target: T3, TGF-β receptor type II (TGFBR2), …; assay: SPR; 1 µM ratBGO-zfBL
[8] = target: T3, TGF-β receptor type II (TGFBR2), …; assay: SPR; 1 µM ratBGO

Binder: B1
- Kd [1]: 1.07 µM
- Kd [2]: 0.127 µM
- Kd [3]: 0.159 µM

Binder: B2
- Kd [3]: 0.282 µM

Binder: B3
- Kd [3]: 1.35 µM

Binder: B4
- Kd [4]: > 10 µM

Binder: B5
- Kd [5]: > 10 µM

Binder: B6
- Kd [6]: > 10 µM

Binder: B7
- Kd [7]: > 10 µM

Binder: B8
- Kd [8]: 1.78 µM
